1 molecule from patent EP4086284A1 (Emergence Therapeutics AG, dated 2022) can be followed below.

This assay deals with T1, Nectin-4 extracellular domain Fc fusion recombinant protein (Nec4-VCC) (human, UniProt Q96NY8 32-349).
T1 construct: extracellular domain; also called Nectin-4-VCC-Fc; not shown: Fc part
T1 sequence (looked up): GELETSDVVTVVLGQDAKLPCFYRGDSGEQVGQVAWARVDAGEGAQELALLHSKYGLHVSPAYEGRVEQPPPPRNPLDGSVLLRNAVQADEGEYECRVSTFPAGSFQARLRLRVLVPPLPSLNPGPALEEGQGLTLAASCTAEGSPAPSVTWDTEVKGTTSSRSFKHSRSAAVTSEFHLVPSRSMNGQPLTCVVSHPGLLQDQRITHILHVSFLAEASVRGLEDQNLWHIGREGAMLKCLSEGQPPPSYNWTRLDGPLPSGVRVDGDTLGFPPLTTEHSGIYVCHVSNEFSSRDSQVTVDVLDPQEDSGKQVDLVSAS
Description: statement in the legend of the competition ELISA on Nec4-VCC.

B1: Enfortumab (HA22) (antibody, V domains shown)
VH: EVQLVESGGGLVQPGGSLRLSCAASGFTFSSYNMNWVRQAPGKGLEWVSYISSSSSTIYYADSVKGRFTISRDNAKNSLSLQMNSLRDEDTAVYYCARAYYYGMDVWGQGTTVTVSS
VL: DIQMTQSPSSVSASVGDRVTITCRASQGISGWLAWYQQKPGKAPKFLIYAASTLQSGVPSRFSGSGSGTDFTLTISSLQPEDFATYYCQQANSFPPTFGGGTKVEIK
notes: also called HA22 mAb
For B1, the binding result is given as “binds”.
